The results in this text go back to the nanobody polyreactivity screen of Harvey et al. (2022).

The nature of this series: yeast display, Sf9 membrane polyspecificity reagent, FACS + sequencing; frameworks hold sequencing errors. In short, it runs like this:
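Nanobodies from a synthetic yeast display library (Saccharomyces cerevisiae BJ5465), induced 36–48 hours with galactose, were stained 1 hour at 4 °C with 10% biotinylated, detergent-solubilized Sf9 membrane reagent, enriched on streptavidin microbeads, then FACS-sorted. Anti-HA (expression) and streptavidin (reagent binding) fluorescence set low and high (top ~1%) gates. Polyreactivity labels come from the gate of origin. Genes were colony-PCR amplified, MiSeq 2 × 250 sequenced and filtered by CDR length.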
For “QVQLVESGGGLVQAGGSLRLSCAASGSTFRPYAMGWDRQAPGKERELVAAITSTGGSTYYADSVKGRFTISRDNAKNTVYLQMNSLKPEDTAVYYCAAPLVRYAGPYDYWGQGTQVTVSS”, the “polyreactivity (PSR sort gate)” value is recorded as “low polyreactivity”. Consider “QVQLVESGGGLVQAGGSLRLSCAASGSTFRPYVMGWSRQAPGKERELVAAISWRGGTTYYADSVKGRFTISRDNAKNTVYLQMNSQKPEDPAVYYCAARGDQGVPVARRYDYWGQGTQVTVSS”, for which the “polyreactivity (PSR sort gate)” value is “high polyreactivity”. “QVQLVESGGGLVQAGGSLRLSCAASGSTFRPYVMGWYRQAPGKERELVAAISWRGGTTYYADSVKGRFTISRDNAKNTVYLQMNSLKPEDTAVYYCAARGDQGVPVARRYDYWGQGTQVTVSS”: the “polyreactivity (PSR sort gate)” value is given as “high polyreactivity”. The entry for “QVQLVESGGGLVQAGGSLRLSCAASGSTFRQNAMGWYRQAPRKERELVATIRTSGGTTYYADSVKGRFTISRDTAKNTVYLQMNSLKPVDTAVYYCAAVSYLFLYQGYPIAYPMYYWGQGTQVTVSS” is “low polyreactivity”. The entry for “QVQLVESGGGLVQAGGSLRLSCAASGSTFRQYAMGWYRQAPGKERELVAAISSSGSTTYYADSVKGRFTISRDNAKNTVYLQMNSLKPEDTAVYYCAAEYTFHYDYWGQGTQVTVSS” is “low polyreactivity”; for “QVQLVESGGGLVQAGGSLRLSCAASGSTFRQYAMGWYRQAPGKERELVAGISYRGGRTYYADSVKGRFTISRDNAKNTVYLHMNSLKPEDTAVYYCNALRHYRDISVDGDDYWGQGTQVTVSS” it is “high polyreactivity”.

For “QVQLVESGGGLVQAGGSLRLSCAASGSTFRRNAMGWYRQAPGKERELVAAIRYSGSSTYYADSVKGRFTISRGNAKNTVYLQMNSLKPEDTAVYYCATVRNNRYKYDYWGQGTQVTVSS”, the “polyreactivity (PSR sort gate)” value is “high polyreactivity”. Under “QVQLVESGGGLVQAGGSLRLSCAASGSTFRRNAMGWYRQAPGKERELVAAISRSGDSTYYADSVKGRFTISRDYAKNTVYLQMNSLKPEDNAVYYCIAHQSRQVGYWGQGTQVTVSS” stands “high polyreactivity”; under “QVQLVESGGGLVQAGGSLRLSCAASGSTFRRNAMGWYRQAPGKERELVAAISSSGGSTYYADSVKGRFTISRDNAKNTVFLQMNSLKPEDTAVYYCAAGYPTLRGYYYWGQGTQVTVSS”, “low polyreactivity”.

For “QVQLVESGGGLVQAGGSLRLSCAASGSTFRRNAMGWYRQPPGKERELVAAISGSGSTYYADSVKGRFTISRDHAKNTVYLQLNSLKPEDTAVYYCAKDVTDPTSRSDRSGDDYWGQGTQVTVSS”, the “polyreactivity (PSR sort gate)” value is recorded as “low polyreactivity”. Turning to “QVQLVESGGGLVQAGGSLRLSCAASGSTFRRNAMGWYRQSPGKERELVAAISWRGGSTYYADSVKGRFTISRDYAKNTVYLQMNSLKPEDTAVYYCNTYHPYWGSGFDYWGQGTQVTVSS”, the “polyreactivity (PSR sort gate)” value is on record as “low polyreactivity”. For the sequence “QVQLVESGGGLVQAGGSLRLSCAASGSTFRRNTMGWYTQAPGKERELVAGISSSGGSTYYADSVKGRFTISRDNAKNTVYLQMNSLNPEDTAVYYCDARFYVSYVGYNYWGHGTQVTVSS”, the “polyreactivity (PSR sort gate)” value is on record as “high polyreactivity”. Consider “QVQLVESGGGLVQAGGSLRLSCAASGSTFRRYAMGWYRQAPGKEREFVAGITFSGVSTYYADSVKGRFTISRDNAKNTVYLQMNSLKPEDTAVYYCNRRPKYVDNDYWGQGTQVTVSS”, for which the “polyreactivity (PSR sort gate)” value is reported as “high polyreactivity”. Consider “QVQLVESGGGLVQAGGSLRLSCAASGSTFRRYAMGWYRQAPGKERELVAAITGSGGRTYYADSVKGRFTISRDNAKNTVYLQMNSLKPEDTAVYYCAKDSYTRPRGYDYWGQGTQVTVSS”, for which the “polyreactivity (PSR sort gate)” value is given as “high polyreactivity”. The entry for “QVQLVESGGGLVQAGGSLRLSCAASGSTFRRYAMGWYRQAPGKERELVATISSGGRTNYADSVKGRFTISRDNAKNTVYLQMNSLKPEDTAVYYCAARPYYYERSAGYYWGQGTQVTVSS” is “high polyreactivity”.

Consider “QVQLVESGGGLVQAGGSLRLSCAASGSTFRSNAMGWYRQAPGKERELVAAISSRVGTTYYADSVKGRFTISRDNAKNTVYLQMNSLKPEDTAVYYCAAQGWRYYRTVVPMDYWGQGTQVTVSS”, for which the “polyreactivity (PSR sort gate)” value is on record as “low polyreactivity”. For “QVQLVESGGGLVQAGGSLRLSCAASGSTFRSNAMGWYRQAPGKERELVASINWSGDSTYYADSVKGRFTISRDNAKNTVYLQMNSLKPEDTAVYYCNAVVDTTEYPYEYDYWGQGTQVTVSS”, the “polyreactivity (PSR sort gate)” value is listed as “low polyreactivity”. “QVQLVESGGGLVQAGGSLRLSCAASGSTFRSNVMGWYRQAPGKERELVAAITSSGGSTYYADSVKGRFTISRDNAKNTVYLQMNSLKPEDTAVYYCAVDYYYGFDWGQGTQVTVSS”: the “polyreactivity (PSR sort gate)” value is given as “low polyreactivity”. Turning to “QVQLVESGGGLVQAGGSLRLSCAASGSTFRSYAMGWYRQAPGKERELVAAISVSGGSTYYADSVKGRFTISRDNAKNTVYLQMNSLKPEDTAVYYCAASYVPSYAPGRYYYWGQGTQVTVSS”, the “polyreactivity (PSR sort gate)” value is listed as “high polyreactivity”. The entry for “QVQLVESGGGLVQAGGSLRLSCAASGSTFRTNAMGWYRQAPGKERELVARIRYSVGSTYYADSVKGRFTISRDNAKNTVYLQMNSLKPEDTAVYYCAAENQRVGTFREHDSWGQGTQVTVSS” is “low polyreactivity”; for “QVQLVESGGGLVQAGGSLRLSCAASGSTFRTNVMGWYRQAPGKERELVAAITKRGSITYYADSVKGRFTISRDNAKNTVYFQMNSLKPEDTAVYYCAARKVAVGGYGYWGQGTQVTVSS” it is “high polyreactivity”. Under “QVQLVESGGGLVQAGGSLRLSCAASGSTFRTYAMGWYRQAPGKERELVADITWRGGSTYYADSVKGRFTISRDNAKNTVYLQMNSLKPEDTAGYYCATDRGPEVVLYDYWGQGTQVTVSS” stands “low polyreactivity”.

With “QVQLVESGGGLVQAGGSLRLSCAASGSTFRTYAMGWYRQAPGKVRELVAAITNGGSTYADSVKGRFTISRDNAKNTVYLQMNSLKPEDTAVYYCNADFGFGYVSLLYEYWGQGTQVTVSS”, the “polyreactivity (PSR sort gate)” value was “low polyreactivity”.

With “QVQLVESGGGLVQAGGSLRLSCAASGSTFRTYAMGWYRQAPGQERELVAASDSSGGNTYYADSVKGRCTISRDPAKNTVYLQMNSLKPEDTAVYYCARESVTYFWYYTPEVDYWGQGTQVTVSS”, the “polyreactivity (PSR sort gate)” value is listed as “low polyreactivity”. For “QVQLVESGGGLVQAGGSLRLSCAASGSTFRTYTMGWYRQAPGKERELVAAISSIGSSTFYADSVKGRFTISRDNAKNTVYLQMISLKPEDTAVYYCAAVRRGGGVIYDYWGQGTQVTVSS”, the “polyreactivity (PSR sort gate)” value is recorded as “high polyreactivity”. With “QVQLVESGGGLVQAGGSLRLSCAASGSTFRTYVMGWYRQAPGKERELVAAITRSGVSTSYADSVKGRFTISRDNAKNTVYLQMNSLKPEDTAVYYCAATKYDDGYSWTHYYYWGQGTQVTVSS”, the “polyreactivity (PSR sort gate)” value is reported as “high polyreactivity”. For “QVQLVESGGGLVQAGGSLRLSCAASGSTFRVNAMGWYRQAPGKERELVAAISSSGGITYYADSVKGRFTISRDNAKNTVYLQMNSLKPEDTAVYYCAKGTVIHVLYDYWGQGTQVTVSS”, the “polyreactivity (PSR sort gate)” value is given as “low polyreactivity”. In the case of “QVQLVESGGGLVQAGGSLRLSCAASGSTFRWNAMGWYRQAPGKETELVAAITRSVGSTYYADSVKGRFTISRDNAKNTVYLQMNSLKPEDTAVYYCAADFYYYGFDYWGQGTQVTVSS”, the “polyreactivity (PSR sort gate)” value is listed as “low polyreactivity”.

Regarding “QVQLVESGGGLVQAGGSLRLSCAASGSTFRWYDMGGYRQAPGKEREFVAAITSSGGSTYYADSVKGRFTISRDNAKNTVYLQMNSLKPEYNAVYYCNRRYQPYSYDYWGQGTQVTVSS”, the “polyreactivity (PSR sort gate)” value is listed as “high polyreactivity”. For the sequence “QVQLVESGGGLVQAGGSLRLSCAASGSTFRWYTMGWYRQAPGKERELVAAINQSGSRTYYADSVKGRFTISRDNAKNTVYLQMNSLKPEDTAGYYCNAKSYKSPHTYYYWGQGTQVTVSS”, the “polyreactivity (PSR sort gate)” value is “high polyreactivity”. As to “QVQLVESGGGLVQAGGSLRLSCAASGSTFRYNAMGWYRQAPGKERELVAAINRGGGTDYADSVKGRFTISRDNAKNTVYLQMNSLKPEDTAVYYCAKQFVSYNRWLAYGYWGQGTQVTVSS”, the “polyreactivity (PSR sort gate)” value was “low polyreactivity”.

For the sequence “QVQLVESGGGLVQAGGSLRLSCAASGSTFRYNAMGWYRQAPGKERELVAAINWSGSSTYYADSVKGRVTISRDNAKNTVYLQMNRLKPEDTAVNYCAAERPWYTKWGEYWGQGTQVTVSS”, the “polyreactivity (PSR sort gate)” value is given as “high polyreactivity”. On to “QVQLVESGGGLVQAGGSLRLSCAASGSTFRYNAMGWYRQAPGKERELVAAITSSGSRTYYADSVKGRFTISRDNAKNTVYFQMISLKPEDTAVYYCAAYGYYTKVTKYDYWGQGTQVTVSS”, for which the “polyreactivity (PSR sort gate)” value is “high polyreactivity”. In the case of “QVQLVESGGGLVQAGGSLRLSCAASGSTFRYNAMGWYRQAPGKERELVASISYNGGNTYYADSVKGRFTISRDNSKNTVYLQMNSLKPEDTAVYYCAAVPIKRGLILGDRGYNYWGQGTQVTVSS”, the “polyreactivity (PSR sort gate)” value is listed as “high polyreactivity”. With “QVQLVESGGGLVQAGGSLRLSCAASGSTFRYNAMGWYRQEPGKERELVAAISSSGGSTRYADSVKGRFTISRDNAKNTVYLQMNSLKPEDTAVYHCAVRFYDWRYYYWGQGTQVTVSS”, the “polyreactivity (PSR sort gate)” value is reported as “high polyreactivity”. Take “QVQLVESGGGLVQAGGSLRLSCAASGSTFRYNTMGWYRQAPGKERELVARITSVGSTNYADSVKGRFTISRDNAKNTVYLQMNSLKPEDTAVYYCATTRPIRRTSARYNYWGQGTQVTVSS”: the “polyreactivity (PSR sort gate)” value was “low polyreactivity”. Regarding “QVQLVESGGGLVQAGGSLRLSCAASGSTFRYYAKGWYRQAPGKERELVAAINYGGGRTYYADSVKGRFTISRDIAKNTVYLQMNSLKPEDTAVYYCATGYYYYRFYTYGYWGQGTQVTVSS”, the “polyreactivity (PSR sort gate)” value is reported as “high polyreactivity”. As to “QVQLVESGGGLVQAGGSLRLSCAASGSTFRYYALGWYRQAPGKEREVVASISIGGGSTYYADSVKGRFTISRDYAKNTVYVQMNSLKPEDTAVYYCAAERTIRAARPFFRTFDYWGQGTQVTVSS”, the “polyreactivity (PSR sort gate)” value was “low polyreactivity”.

Turning to “QVQLVESGGGLVQAGGSLRLSCAASGSTFRYYAMGWYRQAPGKEREFVAAINWSGTSTYYADSVKGRFTISRDNAKNTVYLQMNRLKPEDTAVYYCNARYGLRYVRYGEMDYWGQGTQVTVSA”, the “polyreactivity (PSR sort gate)” value is reported as “high polyreactivity”. In the case of “QVQLVESGGGLVQAGGSLRLSCAASGSTFRYYAMGWYRQAPGKERELVAAIDWSGGTTYYADSVKGRFTISRDNAKNTFYLQMNSLKPEDTAVYYCAADSSRRIGEDYWGHGTQVTVSS”, the “polyreactivity (PSR sort gate)” value was “low polyreactivity”. “QVQLVESGGGLVQAGGSLRLSCAASGSTFRYYAMGWYRQAPGKERELVAAISRRGGSSYYADSVKGRFTISRDNAKKTVYLQMNSLKPEDTAVYYCNAAASTFTSWIRGPGVCYDYWGQGTQVTVSS”: the “polyreactivity (PSR sort gate)” value is given as “high polyreactivity”.
